From patent US20230060095A1 (Regeneron, published 2023)
Positions count from the first letter of the chain named.

T1: peptide on HLA-A*02:01 (human)
T1 peptide: SLLMWITQC

T2: PRAME peptide on HLA-A*02:01 (human)
T2 peptide: SLLQHLIGL

B1: PN42780 (TCR, V domains shown)
V domain 1: TQLLEQSPQFLSIQEGENLTVYCNSSSVFSSLQWYRQEPGEGPVLLVTVVTGGEVKKLKRLTFQFGDARKDSSLHITAAQPGDTGLYLCAGGTSGTYKYIFGTGTRLKVLA
V domain 2: EAQVTQNPRYLITVTGKKLTVTCSQNMNHEYMSWYRQDPGLGLRQIYYSMNVEVTDKGDVPEGYKVSRKEKRNFPLILESPSPNQTSLYFCASSPGTPNYGYTFGSGTRLTVV
B2: PN42706 (TCR, V domains shown)
V domain 1: GIQVEQSPPDLILQEGANSTLRCNFSDSVNNLQWFHQNPWGQLINLFYIPSGTKQNGRLSATTVATERYSLLYISSSQTTDSGVYFCAVEASGTYKYIFGTGTRLKVLA
V domain 2: B1 V domain 2 with P95W, P98G, N99G
B3: PN42442 (TCR, V domains shown)
V domain 1: B1 V domain 1
V domain 2: B1 V domain 2 with P98A
B4: PN42562 (TCR, V domains shown)
V domain 1: B1 V domain 1 with T93P
V domain 2: B1 V domain 2
B5: PN42561 (TCR, V domains shown)
V domain 1: DAKTTQPNSMESNEEEPVHLPCNHSTISGTDYIHWYRQLPSQGPEYVIHGLTSNVNNRMASLAIAEDRKSSTLILHRATLRDAAVYYCILRDGTGNQFYFGTGTSLTVIP
V domain 2: EAQVTQNPRYLITVTGKKLTVTCSQNMNHEYMSWYRQDPGLGLRQIYYSMNVEVTDKGDVPEGYKVSRKEKRNFPLILESPSPNQTSLYFCASSLWTGGGYTFGSGTRLTVV
B6: PN42683 (TCR, V domains shown)
V domain 1: DAKTTQPNSMESNEEEPVHLPCNHSTISGTDYIHWYRQLPSQGPEYVIHGLTSNVNNRMASLAIAEDRKSSTLILHRATLRDAAVYYCILRDREYGNKLVFGAGTILRVKS
V domain 2: B5 V domain 2
B7: PN42655 (TCR, V domains shown)
V domain 1: DAKTTQPNSMESNEEEPVHLPCNHSTISGTDYIHWYRQLPSQGPEYVIHGLTSNVNNRMASLAIAEDRKSSTLILHRSTLRDAAVYYCILRPDSWGKFQFGAGTQVVVTP
V domain 2: B5 V domain 2
notes: stained with anti-mouse TCR constant region antibody H57-597) and full-length chains were expressed on CHO cells
B8: PN42654 (TCR, V domains shown)
V domain 1: B5 V domain 1 with T94I
V domain 2: B5 V domain 2
B9: PN42677 (TCR, V domains shown)
V domain 1: B5 V domain 1
V domain 2: B5 V domain 2 with L95S, W96T, T97G, G98Y, G99Y
B10: PN42365 (TCR, V domains shown)
V domain 1: TQLLEQSPQFLSIQEGENLTVYCNSSSVFSSLQWYRQEPGEGPVLLVTVVTGGEVKKLKRLTFQFGDARKDSSLHITAAQPGDTGLYLCAANGGSQGNLIFGKGTKLSVKP
V domain 2: DAGVTQSPTHLIKTRGQQVTLRCSPKSGHDTVSWYQQALGQGPQFIFQYYEEEERQRGNFPDRFSGHQFPNYSSELNVNALLLGDSALYLCASSLQDYGYTFGSGTRLTVV
B11: PN42879 (TCR, V domains shown)
V domain 1: TQLLEQSPQFLSIQEGENLTVYCNSSSVFSSLQWYRQEPGEGPVLLVTVVTGGEVKKLKRLTFQFGDARKDSSLHITAAQPGDTGLYLCAGEDFGNEKLTFGTGTRLTIIP
V domain 2: B10 V domain 2 with L95W, Q96A
B12: PN42483 (TCR, V domains shown)
V domain 1: B10 V domain 1 with A91G, N92D
V domain 2: EAQVTQSPRYLITVTGKKLTVTCSQNMNHEYMSWYRQDPGLGLRQIYYSMNVEVTDKGDVPEGYKVSRKEKRNFPLILESPSPNQTSLYFCASSLGGADEKLFFGSGTQLSVL
B13: PN42498 (TCR, V domains shown)
V domain 1: B10 V domain 1 with A91G, N92D
V domain 2: B10 V domain 2 with Q96V
B14: PN42689 (TCR, V domains shown)
V domain 1: B10 V domain 1 with A91E, N92D
V domain 2: B10 V domain 2 with Q96S
B15: PN42386 (TCR, V domains shown)
V domain 1: B10 V domain 1 with A91T
V domain 2: B10 V domain 2
B16: PN42840 (TCR, V domains shown)
V domain 1: B10 V domain 1 with A91E, N92G
V domain 2: B10 V domain 2 with L95W, Q96T
B17: PN42610 (TCR, V domains shown)
V domain 1: QKEVEQNSGPLSVPEGAIASLNCTYSDRGSQSFFWYRQYSGKSPELIMSIYSNGDKEDGRFTAQLNKASQYVSLLIRDSQPSDSATYLCAGNYGQNFVFGPGTRLSVLP
V domain 2: AAGVIQSPRHLIKEKRETATLKCYPIPRHDTVYWYQQGPGQDPQFLISFYEKMQSDKGSIPDRFSAQQFSDYHSELNMSSLELGDSALYFCASSIGLNQPQHFGDGTRLSIL
B18: PN42750 (TCR, V domains shown)
V domain 1: B7 V domain 1
V domain 2: DVKVTQSSRYLVKRTGEKVFLECVQDMDHENMFWYRQDPGLGLRLIYFSYDVKMKEKGDIPEGYSVSREKKERFSLILESASTNQTSMYLCASSTVRQGNYGYTFGSGTRLTVV
notes: as for B7
B19: PN42476 (TCR)
TCR alpha: B7 V domain 1
TCR beta: EAQVTQSPRYLITVTGKKLTVTCSQNMDHEYMSWYRQDPGLGLRQIYYSMNVEVTDKGDVPEGYKVPRKEKRSFPLILESPCCSQTPLYLCASSLGGVDERLSFGSGTQLSVL
notes: as for B7
B20: PN42378 (TCR, V domains shown)
V domain 1: B7 V domain 1
V domain 2: B10 V domain 2
notes: as for B7
B21: PN42776 (TCR, V domains shown)
V domain 1: B7 V domain 1
V domain 2: B10 V domain 2 with L95W, Q96T
notes: as for B7
B22: PN42455 (TCR, V domains shown)
V domain 1: B7 V domain 1
V domain 2: B10 V domain 2 with Q96V
notes: as for B7

Target: T1, peptide on HLA-A*02:01
Experiment: activation reporter or marker

| binding result | Binder |
| --- | --- |
| no recognition | B1 |
| no recognition | B2 |
| no recognition | B3 |
| no recognition | B4 |
| no recognition | B5 |
| no recognition | B6 |
| no recognition | B7 |
| no recognition | B8 |
| no recognition | B9 |
| no recognition | B10 |
| no recognition | B11 |
| no recognition | B12 |
| no recognition | B13 |
| no recognition | B14 |
| no recognition | B15 |
| no recognition | B16 |
| no recognition | B17 |

Target: T2, PRAME peptide on HLA-A*02:01
Experiment: multimer staining

| binding result | Binder |
| --- | --- |
| recognises | B18 |
| recognises | B19 |
| recognises | B1 |
| recognises | B2 |
| recognises | B3 |
| recognises | B4 |
| recognises | B5 |
| recognises | B7 |
| recognises | B10 |
| recognises | B20 |
| recognises | B13 |
| recognises | B21 |
| recognises | B14 |
| recognises | B22 |
| recognises | B15 |
| recognises | B16 |

target: T3, soluble HLA:A2:PRAME (425-433) tetramer (human); experiment: flow cytometry, soluble pMHC tetramer on CHO cells expressing the TCR;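 further: CHO cells transfected with vectors encoding full-length paired TCR alpha and beta chains, stained with PRAME/HLA tetramer and read by flow cytometry, each value reflects one listed TCR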
T3 construct: Commercial tetramer (MBL International); construct limits, biotin tag and streptavidin/fluorophore not described; also called PRAME/HLA tetramer reagent; PRAME (425-433)/HLA-A2

| Cell Frequency ≥1000 MFI, ≥1% (% tetramer positive cells in the Ag+ gate) [%] | Binder |
| --- | --- |
| 40.8 | B18 |
| 54.2 | B19 |
| 4.89 | B1 |
| 24.7 | B2 |
| 61.3 | B3 |
| 92 | B4 |
| 80.2 | B5 |
| 11.1 | B6 |
| 27 | B7 |
| 20.1 | B8 |
| 25.3 | B9 |
| 95.8 | B10 |
| 93.1 | B11 |
| 86.4 | B12 |
| 77.5 | B20 |
| 90.3 | B13 |
| 60.2 | B21 |
| 4.92 | B14 |
| 53 | B22 |
| 82.2 | B15 |
| 52.5 | B16 |
| 6.08 | B17 |

target: HLA-A2/PRAME (425-433) on HLA-A2*01 HEK293T cells pulsed with PRAME 425-433 peptide (human); experiment: cell-based or functional assay

| EC50 (µM) of peptide, AP1 luciferase reporter in Jurkat cells expressing the TCR [µM] | Binder |
| --- | --- |
| 1.25 | B1 |
| 0.727 | B2 |
| 0.232 | B3 |
| 0.0281 | B4 |
| 0.0137 | B5 |
| 0.0159 | B10 |
| 0.00242 | B13 |
| 0.0095 | B14 |
| 0.0271 | B15 |
| 0.0309 | B16 |
